Patent publication US8017725B2, “Use of heparin-binding domain of fibronectin for diagnosis and treatment of cancer” (Novartis Forschungesstiftung Zweigniederlassung Friedrich …, priority 2001, dated 2011)
Entries after “also recorded” stand apart in the source; their conditions may differ.

What was measured:
[1] = test system: T98G cells, MDA-MB435 cells and rat embryo fibroblasts REF52; assay: Attachment assay: cell spreading on fibronectin/tenascin-C with added fibronectin fragment; assay type: cell-based
Method: 60-well microtiter plates (Nunc) were coated with 10 μg/ml ECM molecules giving rise to 1 μg/cm^2 (fibronectin and tenascin-C) and 4 μg/cm^2 (FNIII13) for 1 h at 37° C. ECM proteins were coated separately, starting with fibronectin, followed by tenascin-C, FNIII13 and BSA. The non-coated plastic surface was blocked with 1% heat-inactivated BSA in PBS giving rise to 10 μg/cm^2 protein. Similarly, mixed substrata of collagen I and laminin 1, respectively with tenascin-C were prepared and tenascin-C was detected by ELISA.
Efficient fibronectin and tenascin-C coating was determined by ELISA with an anti-fibronectin and anti-tenascin-C antibody (Fischer, D. et al (1995) J Biol Chem 270: 3378-3384), respectively and by PAGE analysis of lysed surface-bound ECM material combined with Coomassie Brilliant Blue staining. Before plating, cells were serum starved for 18 h in DMEM containing 1×ITS (insulin, transferrin, selene) supplement, trypsinised, trypsin was blocked with 100 μg/ml soybean trypsin inhibitor in PBS and, cells were resuspended in serum-free medium and counted. 200-500 cells per well were plated for the indicated time points, fixed by addition of glutaraldehyde (2% final concentration) for 15 minutes and stained with 0.1% crystalviolet in 20% methanol for 30 minutes. Cells were observed under a Nikon microscope (Nikon diaphot) and pictures were taken with a Nikon camera.
(§1) Cells were plated on substrata (FN, FN/TN, FN/TN/III13, FN/TN+III13, III13, or BSA) for 1 h and 2 h, fixed and stained with crystal violet or vinculin and TRITC—labelled phalloidin. Adherent cells were photographed and spread cells were counted. Six-fold molar excess of FNIII13 (4 μg/cm^2) was either bound to a mixed fibronectin/tenascin-C substratum prior to addition of the cells (FN/TN/III13) or, was added in solution together with the cells (FN/TN+FNIII13). Proliferation of MDA-MB435 cells and DNA replication of T98G glioblastoma cells were determined as described in Examples 4 and 5. […] T98G cells plated for 2 h on fibronectin or on the mixed substratum were stained for vinculin. […] In addition, polymerisation of actin into stress fibres was blocked by tenascin-C. No polymerised actin was found.

T98G and REF52 cells = assay: Immunofluorescence of actin stress fibres and focal contacts; assay type: cell-based
Method: 10^4 cells were transferred onto 4-well Cellstar plastic plates (Greiner) that were coated with ECM proteins as described. Cells were fixed with 4% paraformaldehyde, 50 mM phosphate buffer, 5 mM EDTA in PBS for 15 minutes, blocked with 3% BSA, 0.5% Tween-20 in PBS and incubated with primary and secondary antibodies in blocking solution. Slides were embedded in 10.5% Mowiol containing 2.5% DABCO as antifade agent. Expression of syndecans was determined by immunofluorescence.
as §1

tenascin-C [2] = assay: In vitro binding assay (ELISA) to tenascin-C; parameters: species or system chicken; settings: substratum-immobilised tenascin-C
Method: (§2) 96-well ELISA plates were coated with the indicated ECM proteins for 1 h at 37° C., blocked with 1% milkpowder, 0.05% Tween-20 in PBS. ECM proteins were added at the indicated concentrations in blocking solution for 1 h, washed with blocking solution and anti-fibronectin or anti-tenascin-C antibodies were added. Bound proteins were detected by immune reaction with a peroxidase-coupled secondary antibody specifically recognising anti-fibronectin and anti-tenascin-C antibodies, respectively, followed by colour reaction with 21 mg/ml citric acid 1-hydrate, 34 mg/ml Na2HPO4.2H2O, 0.4 mg/ml phenylenediamine, 1 μl H2O2 that was stopped with 4M sulphuric acid. The absorbance was read at […].
Bound fragments were detected with a polyclonal anti-fibronectin antibody, bound tenascin-C was detected with a monoclonal anti-tenascin-C antibody.

syndecan-4 = assay: Syndecan-4 immunoprecipitation and immunoblotting for FNIII13; assay type: binding
Method: (§3) To investigate FNIII13 as a potential ligand of syndecan-4, the interaction of syndecan-4 with FNIII13 was tested. Upon addition of FNIII13 to T98G:S4* cells, FNIII13 was detected in a syndecan-4 immunoprecipitation followed by western blotting with a GST specific antibody. This interaction was blocked upon addition of heparin. Parental and syndecan-4 overexpressing T98G:S4* cells were incubated with (100 μg/ml) FNIII13 for 1 h in the presence or absence of 0.5 mg/ml heparin. Syndecan-4-bound FNIII13 was detected by immunoprecipitation of syndecan-4 and immunoblotting for FNIII13. Recombinant FNIII13 was added to the cells in the absence or presence of (0.5 mg/ml) heparin. […] To further test whether FNIII13 binds to syndecan-4, FNIII13 was added to T98G cells and cell surface-bound FNIII13 was detected by pull down of the GST-tagged FNIII13 with glutathione Sepharose followed by western blotting with an anti-His antibody or by immunofluorescence with an anti-GST antibody. […] This interaction could be blocked by heparin showing that syndecan-4 bound FNIII13 in a glycosaminoglycan-dependent manner. In addition, cell surface-bound FNIII13 was detected by immunofluorescence with an anti-His and anti-GST antibody. […] Syndecan-2 expression was determined by incubation with chicken anti-syndecan-2, followed by rabbit anti-chicken and FITC coupled goat anti-rabbit immunostaining.

tenascin-C [3] = assay: Co-immunoprecipitation with tenascin-C; assay type: binding, chicken
[4] = test system: binding of tenascin-C to surface-immobilised intact fibronectin; assay: Competition of tenascin-C binding to surface-immobilised intact fibronectin
Method: as §2
No binding of the recombinant fragment FNIII7-10, including the RGD and synergy sites, to tenascin-C was detected in an ELISA assay.

T98G:S4* cells = assay: Cell surface binding of FNIII13 (pull down, western blotting, immunofluorescence); assay type: cell-based, human; settings: compared to parental T98G
Method: as §3

[5] = test system: FAK (focal adhesion kinase) autophosphorylation at Y397; assay: FAK autophosphorylation by immunoblotting; assay type: cell-based, human; settings: T98G parental and T98G:S4* cells
Method: An experiment was performed to check for the possibility that tenascin-C might compete with syndecan-4 for binding to the HepII site in fibronectin. The experiment tested whether activation of syndecan-4 through overexpression could rescue the tenascin-C-induced spreading defect on fibronectin. Parent T98G cells, pools (T98G:S4) or a selected clone (T98G:S4*) of glioblastoma cells stably overexpressing syndecan-4 (T98G:S4) were plated on the indicated substrata for 30 minutes, 2 h, 18 h or fixed, stained with crystal violet, photographed, and counted or stained with TRITC-labelled phalloidin and vinculin. Syndecan-4 was detected by immunofluorescence with an anti-syndecan-4 antibody. There was no staining with an unspecific anti-His monoclonal antibody (control), nor with the secondary antibody alone. FAK (focal adhesion kinase) autophosphorylation at Y397 and total FAK expression levels were assessed by immunoblotting with specific antibodies. DNA replication was determined as described in Example 4 and 5. As a result, pools of T98G cells (T98G:S4) that overexpressed syndecan-4 thereby activating syndecan-4 attached and spread on the mixed fibronectin/tenascin-C substratum. The majority of the 64.7% of T98G:S4 cells that attached also spread on the fibronectin/tenascin-C substratum. […]

[6] = fragment bound (immobilised) to the mixed substratum

SEQ ID NO:4: 20 amino acid fragment of FNIII13 having the sequence of SEQ ID NO:4, made by solid phase synthesis (RRARVTDATETTITISWRTK; listed as Homo sapiens)
restoration of cell spreading on fibronectin/tenascin-C substratum [1, 6]: restored cell spreading | restoration of actin stress fibres and focal contacts on fibronectin/tenascin-C substratum (T98G and REF52 cells): largely restored

fibronectin: Fibronectin prepared from horse serum by gelatin agarose chromatography
binding to tenascin-C in ELISA (tenascin-C [2]): binds to substratum-immobilised tenascin-C in a dose-dependent manner

heparin [reference compound]
effect on the FNIII13/syndecan-4 interaction (syndecan-4; 0.5 mg/ml heparin): blocked

B1: FNIII13: recombinant 13th fibronectin type III repeat of the HepII site (SEQ ID NO:1) (protein, listed as Homo sapiens)
chain: NVSPPRRARVTDATETTITISWRTKTETITGFQVDAVPANGQTPIQRTIKPDVRSYTITGLQPGTDYKIYLYTLNDNARSSPVVIDAST
complex formation with tenascin-C in co-immunoprecipitation (tenascin-C [3]): form complexes | binding to tenascin-C in ELISA (tenascin-C [2]): bound to tenascin-C in a dose-dependent manner reaching saturation | competition of tenascin-C binding to immobilised intact fibronectin [4]: competed for by FNIII13 in a concentration-dependent fashion | attachment and spreading on the fragment alone as substratum ([1]; FNIII13 substratum without fibronectin): poorly attached and remained rounded | restoration of cell spreading on fibronectin/tenascin-C substratum ([1]; fragment added in solution together with the cells): restored | restoration of cell spreading on fibronectin/tenascin-C substratum [1, 6]: could restore the cell spreading defect | binding to the cell surface of syndecan-4 overexpressing T98G cells (T98G:S4* cells): dose-dependent and heparin-competable manner; also recorded: several fold increased levels | restoration of actin stress fibres and focal contacts on fibronectin/tenascin-C substratum (T98G and REF52 cells): largely restored | FNIII13 bound to syndecan-4 in immunoprecipitation (syndecan-4; T98G:S4* cells, 100 μg/ml FNIII13, 1 h): detected | FAK autophosphorylation at Y397 [5]: largely restored FAK autophosphorylation
